# In US20190367619A1 (ARGENX, published 2019):
# T1: human galectin-10 as coated in ELISA (soluble galectin-10; tag not given) (human, UniProt Q05315 1-142, limits assumed)
# T1 construct: also called coated galectin-10; Gal10
# T1 sequence: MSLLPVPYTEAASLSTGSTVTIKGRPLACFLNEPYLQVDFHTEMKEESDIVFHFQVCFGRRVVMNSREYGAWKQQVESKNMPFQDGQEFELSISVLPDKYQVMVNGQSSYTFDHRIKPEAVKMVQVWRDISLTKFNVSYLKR
# T2: human galectin-10-His (recombinant human galectin-10 with TEV-cleavable N-terminal His-tag) (human)
# T2 construct: SEC-MALLS: dimer in solution; also called Gal10-His; humanGal10-His
# T2 chain: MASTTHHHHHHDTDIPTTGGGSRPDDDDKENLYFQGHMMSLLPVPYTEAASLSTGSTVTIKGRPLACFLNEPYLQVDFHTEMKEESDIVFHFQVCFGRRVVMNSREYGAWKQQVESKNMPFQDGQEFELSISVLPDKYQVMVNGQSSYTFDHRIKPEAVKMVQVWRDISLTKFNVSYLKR
# T3: cynomolgus galectin-10-His, YRT isoform (cynomolgus)
# T3 construct: not shown: His tag
# T3 chain: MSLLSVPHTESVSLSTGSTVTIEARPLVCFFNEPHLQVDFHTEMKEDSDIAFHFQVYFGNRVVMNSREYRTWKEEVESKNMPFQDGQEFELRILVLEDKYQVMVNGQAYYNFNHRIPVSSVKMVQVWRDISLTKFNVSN
# T4: human galectin-10-His (human)
# T4 construct: Whether the last M of the tag is the start Met of galectin-10 is not clear; also called human Gal10-HIS; humanGal10-His
# T4 chain: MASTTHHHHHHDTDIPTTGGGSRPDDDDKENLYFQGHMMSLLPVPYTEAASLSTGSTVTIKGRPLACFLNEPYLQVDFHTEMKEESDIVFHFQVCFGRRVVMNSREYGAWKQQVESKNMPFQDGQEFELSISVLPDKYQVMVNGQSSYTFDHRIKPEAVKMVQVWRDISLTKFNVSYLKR
# Columns and labels:
# [1] = target: T1, human galectin-10 as coated in ELISA …; assay: ELISA, scFv periplasmic extract on coated soluble galectin-10, anti-Myc-HRP
# Protocol: In order to test the binding capacity of the scFvs to galectin-10, an ELISA binding assay was established. Briefly, a Maxisorp plate was coated with soluble galectin-10 (1 μg/mL), then blocked with casein, before being incubated with the periplasmic extract (dilution 1/5 in PBS) containing the scFv-Myc. Detection of the binder was carried out with an anti-Myc-HRP antibody. Absorbance was measured at 450 nm (reference at 620 nm) with Tecan instrument. A significant number of galectin-10 scFv binders were isolated after the second round of selection (45-87% of binders).
# [2] = target: T2, human galectin-10-His (recombinant …); assay: ELISA, scFv-hFc on coated galectin-10-His (0.2 ug/mL)
# Protocol: In a similar setup to that used during the initial screening, the relative binding properties of the 12 scFv-human Fc clones were analyzed by ELISA. Briefly, a Maxisorp plate was coated with galectin-10-His at 0.2 μg/mL and blocked with casein, before being incubated with a serial dilution of the scFv-human Fc fusion molecules. After several washing steps, detection of the bound scFv-human Fc was carried out with an anti-human Fc-HRP antibody. Absorbance was measured at 450 nm (reference at 620 nm) with Tecan instrument. Finally, the raw data (OD values) were plotted on GraphPad Prism 7.01. The EC50 value of each compound was calculated with a non-linear regression (log(agonist) vs. response Variable slope (four parameters)).
# [3] = target: T2, human galectin-10-His (recombinant …); assay: SPR Biacore T3000, scFv-hFc captured by anti-human Fc, galectin-10-His as analyte
# Protocol: In order to determine the binding properties (on-rate/off-rate) of the scFv-human Fc panel, their binding capacity to galectin-10 was analyzed on Biacore T3000. For this purpose, a capture approach was set up. A CM5 Chip was coated with polyclonal anti-human Fc at 8000 RU, then a fixed concentration of the scFv-human Fc panel (1.5 μg/mL), diluted in HBS-EP pH7.4, were captured to reach a binding signal around 150 RU. Finally, a serial dilution of galectin-10-His (serial dilution, 1 over 2 from 5 μg/mL, 6 points of dilution) diluted in HBS-EP pH7.4 was injected. Raw data were analyzed via BIA evaluation software with a blank subtraction (4-3). The kd/KD and Rmax of each scFv-human Fc for galectin-10-His was determined using the Fit Kinetics simultaneous ka/kd/Binding with mass transfer/Local Rmax on BIA evaluation software.
# [4] = target: T3, cynomolgus galectin-10-His, YRT isoform; assay: ELISA, Gal10-His coated at 1 ug/mL, VHH titrated, anti-Myc-HRP
# Protocol: (§1) The binding capacity of the 15 VHH clones was analysed by ELISA. Briefly, a Maxisorp plate was coated overnight with human or cynomolgus WGS or YRT isoforms galectin-10-His at 1 μg/mL and blocked with PBS 1% casein, before being incubated with a serial dilution of the VHH (from 4 μM, dilution 1/3, 12 points of dilutions). […] Absorbance was measured at 450 nm (reference at 620 nm) with Tecan instrument. Finally, the raw data (OD values) were plotted on GraphPad Prism 7.01. […] As a positive control, clone 1D06 from the previous human specific panel was included.
# human galectin-10-His = target: T4, human galectin-10-His; assay: as above
# Protocol: as §1
binder,measurement,setting,value
"scFv 5E12 (periplasmic extract, Myc-tagged) (scFv, not shown: small tags and cut ends) scFv: QLQLVESGGGLVQPGGSLRLSCVASGFTFRNYPMTWVRQAPGKGPEWVSAINGGGDIPYYADSVKGRFTISRDNAKNTVYLQMDSLKPEDTAMYYCAKQKWGYDPRRTDFEFRGQGTQVTVSSGGGGSGGGGSGGGGSETVPTQSPSSVTASVGEKVTITCKSSQSVRIESNHKTYLNWYQQRPGRGPRLLIYDASSRESGIPDRFSGSGSTSDFTLTISSVQPEDAAVYYCQQAYAAPTFGQGTKLEIK",PERI-ELISA binding (OD values),[1],2.42 OD
"scFv 6A11 (periplasmic extract, Myc-tagged) (scFv, not shown: small tags and cut ends) scFv: ELQLVESGGGLVQPGGSLRLSCSASGFTFGAYAMNWVRQAPGKGLEWVSGVNSGGGLTSYGESVKGRFTISRDNAKNTLYLQMNRLNPDDTAVYYCAKSKRGAVVAGTGDDYWGQGTQVTVSSGGGGSGGGGSGGGGSSSALTQPSAVSVSLGQTARITCQGGNFGRYYVSWYQQKPGQAPVLVIYKDSERPSGIPERFSGSSSGDTATLTISGAQAEDEADYYCQSGSSSDNAVFGGGTHLTVL",PERI-ELISA binding (OD values),[1],2.35 OD
"scFv 6F05 (periplasmic extract, Myc-tagged) (scFv, not shown: small tags and cut ends, also called 6F5) scFv: QLQLVESGGGLVQPGGSLRLSCAASGFTFSSYAMSWVRQAPGKGLEWVSAINSGGGSTSYADSVKGRFTISRDNAKNTLYLQMNSLKPEDTAVYYCATPGDRLWYYRYDYWGQGTQVTVSSGGGGSGGGGSGGGGSQAGLTQPPSVSGTLGKAVTISCAGTSSDIGYGNYVSWYQQLPGTAPKLLIYKVSRRASGVPDRFSGSKSGNTASLSISGLQSEDEADYYCASYRYRNNVVFGGGTHLTVL",PERI-ELISA binding (OD values),[1],3.83 OD
"scFv 6F11 (periplasmic extract, Myc-tagged) (scFv, not shown: small tags and cut ends, also called 6F011) scFv: QVQRQESGPGLVKPSQTLSVTCTVSGGSITTGPYSWSWIRQPPGKGLEWIGYIGYSGSTYYSPSLKSRTSISRDTSNNQFSLQLSSVTPEDTAVYYCARSRSSPTTFGMDYWGKGTLVTVSSGGGGSGGGGSGGGGSSSALTQPSAVSVSLGQTARITCQGGDFGRYYVAWYTQKPGQAPVLVIYQDSERPSGIPERFSGSSSGDTATLTISGAQAEDEAEYYCQSGISSDNIVFGGGTHLTVL",PERI-ELISA binding (OD values),[1],3.76 OD
"1A12 scFv-human Fc (Fc fusion, about 100 kDa on SDS-PAGE; also called 1A12 ScFv-hFc; not shown: CH2-CH3 constant domains of human IgG1 (vector pUPEX50)) scFv: QVQLVESGGGLVQPGGSLRVSCAASGFTFSSYYMSWVRQAPGKGLEWVSAINSGGGSTYYADSVKGRFTISRDNAKNTLYLQMNSLKSEDTAVYYCVQNGGIWSFGSWGQGTQVTVSSGGGGSGGGGSGGGGSSSALTQPSAISVSLGQTARITCQGGNFGYYYVSWYQQKPGQAPVQVIYGDSNRPSGIPERFSGSSSGGTATLTISGAQAEDEADYYCLSYESSDYPVFGGGTHLTVL",Bmax (OD values),[2],0.409 OD
same,Kd,[3],11.7 nM
same,koff,[3],0.00315 s⁻¹
"scFv 1A12 (periplasmic extract, Myc-tagged) (scFv, not shown: small tags and cut ends) scFv: QVQLVESGGGLVQPGGSLRVSCAASGFTFSSYYMSWVRQAPGKGLEWVSAINSGGGSTYYADSVKGRFTISRDNAKNTLYLQMNSLKSEDTAVYYCVQNGGIWSFGSWGQGTQVTVSSGGGGSGGGGSGGGGSSSALTQPSAISVSLGQTARITCQGGNFGYYYVSWYQQKPGQAPVQVIYGDSNRPSGIPERFSGSSSGGTATLTISGAQAEDEADYYCLSYESSDYPVFGGGTHLTVL",PERI-ELISA binding (OD values),[1],2.13 OD
"3A03 scFv-human Fc (Fc fusion, about 100 kDa on SDS-PAGE; also called 3A03 ScFv-hFc; not shown: CH2-CH3 constant domains of human IgG1 (vector pUPEX50)) scFv: QVQLVESGGGLVQPGGSLRLSCATSGFTFSVYAMSWVRQAPGKGLEWVADINTSGDSTTYADSVKGRFTISRDNAKNTLYLQMNSLKPEDTAVYYCANRYTQERGQGTQVTVSSGGGGSGGGGSGGGGSDVVLTQTPGSLSVVPGEAASISCKPGRTLVHTDGRTYLYWLQQKPGQRPQLLIYQVSNRGSGVPDRFTGSGSGTDFTLKISGVKAEDAGVYYCAQATYYPLTFGSGTRLEIK",Bmax (OD values),[2],1.81 OD
same,EC50,[2],0.06 nM
same,Kd,[3],1.56 nM
same,koff,[3],0.0111 s⁻¹
"5E12 scFv-human Fc (Fc fusion, about 100 kDa on SDS-PAGE; also called 5E12 ScFv-hFc; not shown: CH2-CH3 constant domains of human IgG1 (vector pUPEX50)) scFv: QLQLVESGGGLVQPGGSLRLSCVASGFTFRNYPMTWVRQAPGKGPEWVSAINGGGDIPYYADSVKGRFTISRDNAKNTVYLQMDSLKPEDTAMYYCAKQKWGYDPRRTDFEFRGQGTQVTVSSGGGGSGGGGSGGGGSETVPTQSPSSVTASVGEKVTITCKSSQSVRIESNHKTYLNWYQQRPGRGPRLLIYDASSRESGIPDRFSGSGSTSDFTLTISSVQPEDAAVYYCQQAYAAPTFGQGTKLEIK",Bmax (OD values),[2],1.84 OD
same,EC50,[2],0.25 nM
same,Kd,[3],4.73 nM
same,koff,[3],0.00177 s⁻¹
"scFv 2B11 (periplasmic extract, Myc-tagged) (scFv, not shown: small tags and cut ends) scFv: QVQLQESGPGLVKPSQTLSLTCTVSGGSITTNYYYWSWIRQPPGKGLEWMGAIAYSGSTYYSPSLKSRTSISRDTSKNQFTLQLSSVTPEDTAVYYCARAPYGISREYDYWGQGTQVTVSSGGGGSGGGGSGGGGSHSAVTQPSAVSVSLGQTARITCQGGKFGRYYASWYQQKPGQAPVLVIYKDSERPSGIPERFSGSSSGDTATLSISGAQAEDEADYFCQSGRSSDNAVFGGGTHLTVL",PERI-ELISA binding (OD values),[1],3.79 OD
"scFv 2E11 (periplasmic extract, Myc-tagged) (scFv, not shown: small tags and cut ends) scFv: EVQLVESGGGLVQPGGSLRLSCAASGFTFSSYAMSWVRQAPGKGLEWVSPINSGSDSASYVDSVKGRFTISRDNAKNTLYLQMNSLKPEDTAVYYCAKARTSVVAGGMDYWGKGTLVTVSSGGGGSGGGGSGGGGSQSALTQPSAVSVSLGQTARITCQGGKFGSYYVSWYQQKPGQAPVMVIYKDNERPSGIPERFSGSSSGSTSTLTISGAQAEDEGTYYCQSGSSSDNIVFGGGTELTVF",PERI-ELISA binding (OD values),[1],3.51 OD
"VHH clone 13B06 (VHH, Purified VHH-Myc-His from E. coli; not shown: Myc and His tags of the phagemid vector) VHH: QVQLVESGGGLVQAGGSLRLSCAASGRTFSTYSMAWFRQAPGKEREFVAAITRSGGNTYADSVKGRFTISRDNAKNTVTLQMNSLKPEDTAAYHCAAGGTYSFVPRSYNYWGQGTQVTVSS",Bmax (OD values),[4],2 OD
same,Bmax (OD values),human galectin-10-His,1 OD
"VHH clone 13C04 (VHH, Purified VHH-Myc-His from E. coli; not shown: Myc and His tags of the phagemid vector) VHH: ELQVVESGGGLVQAGGSLRLSCAASGRTFSTYSMAWFRQAPGKEREFVAAITRSGGNTYADSVKGRFTISRDNAKNTVTLQMNSLKPEDTAAYHCAAGGTYSFVPRSYNYWGQGTQVTVSS",Bmax (OD values),[4],2.5 OD
same,Bmax (OD values),human galectin-10-His,1.1 OD
"VHH clone 13C03 (VHH, Purified VHH-Myc-His from E. coli; not shown: Myc and His tags of the phagemid vector) VHH: QVQLVESGGGLVQPGGSLRLSCAASGSIFSISRMGWYRQAPGKQRELVAIIFSDASTDYADSVKGRFTISRSNAKNTVYLQMNSLKPEDTAVYYCKSVLRAAGYGYFNQYWGQGTQVTVSS",Bmax (OD values),human galectin-10-His,2 OD
same,EC50,human galectin-10-His,30.6 nM
"VHH clone 13E09 (VHH, Purified VHH-Myc-His from E. coli; not shown: Myc and His tags of the phagemid vector) VHH: QVQVQESGGGLVQAGNSLRLSCAASGRTFSSYHMMWFRQAPGKEREFVAAIAWRGGTYCANSVKGRCTISRDNAKDTVYLQMNSLKPEDTAVYFCAASLRYVFDPSAMDYWGKGTLVTVSS",Bmax (OD values),[4],3 OD
same,EC50,[4],66.9 nM
same,Bmax (OD values),human galectin-10-His,1.8 OD
same,EC50,human galectin-10-His,106 nM
